# “Also recorded” adds a separate entry of the source. Read-outs that look alike come from different tables or passages of the source.
# How the values were obtained:
# [1] = target: T1, HvXET5 (Hordeum vulgare, UniProt P93668); settings: 1 nM HvXET5, pH 6
# Description: The effect of Ca^2+ (as calcium chloride) and Mg^2+ (as magnesium sulfate), both in 0-15 mM concentration ranges, and of EDTA in a 0-20 mM concentration range, were determined by incubating 1 nM HvXET5 in 100 mM succinate buffer, pH 6. Enzyme activities were determined radiometrically as specified above, in triplicate and with a standard error of 8-10%.
# [2] = target: T1, HvXET5; assay: pH optimum and enzyme stability of HvXET5; format: biochemical, barley (Hordeum vulgare L., cv. Clipper)
# Description: The effect of pH on the activity of HvXET5 was determined by incubating 1 nM HvXET5 at 30° C. for 60 min in 50 mM citric acid/100 mM sodium dihydrophosphate (McIlvaine) buffers, pH 4.0-8.5 in the presence of 0.02% (w/v) BSA. […] The thermal stability of HvXET5 was determined after 15 min incubation at 0-70° C. The freeze/thaw stability of HvXET5 at 1 nM concentration was determined after three cycles of freezing (−80° C.) and thawing (4° C.), each of 3 min duration. Activity was subsequently measured at 30° C. in 100 mM ammonium acetate buffer, pH 6, containing 5 mM calcium chloride, without and with the addition of 10% (v/v) glycerol. Enzyme activity was determined radiometrically as specified above, and expressed as % activity relative to maximal activity. Assays were performed in triplicate and standard errors of 8-14% were observed.
# [3] = substrate: OC[C@@H](O)[C@@H](O[C@@H]1O[C@H](CO[C@H]2OC[C@@H](O)[C@H](O)[C@H]2O)[C@@H](O[C@@H]2O[C@H](CO[C@H]3OC[C@@H](O)[C@H](O)[C@H]3O)[C@@H](O[C@@H]3O[C@H](CO[C@H]4OC[C@@H](O)[C@H](O)[C@H]4O)[C@@H](O)[C@H](O)[C@H]3O)[C@H](O)[C@H]2O)[C@H](O)[C@H]1O)[C@H](O)[C@@H](O)CO; assay: Km and kcat constants of HvXET5; format: biochemical, barley (Hordeum vulgare L., cv. Clipper); settings: other: acceptor substrate
# [4] = target: T1, HvXET5; assay: Radiometric activity assay of HvXET5 with TXG and [3H]-labelled XXXGol; format: biochemical, barley (Hordeum vulgare L., cv. Clipper); settings: purified enzyme; 30° C., pH 6.0, 0.3% (w/v) TXG
# Description: The activity of HvXET5 during enzyme purification was determined radiometrically at 30° C. in 100 mM succinate or ammonium acetate buffers, pH 6.0, containing 5 mM calcium chloride, 0.3% (w/v) TXG and [^3H]-labelled xyloglucan-derived saccharide heptaitol (XXXGol, specific radioactivity 83 MBq·μmol^−1) (Fry, et al., Biochem. J. 282, 821-828, 1992) with approximately 30,000 dpm per reaction mixture. The radioactivity incorporated in reaction products was counted on 2×1 cm Whatman chromatography 3MM paper strips in plastic vials and using LSC6500 Scintillation counter (Beckman, Fullerton, USA) with approximately 48% efficiency for tritium, using EcoLume scintillation fluid, and with 70% quenching. Enzyme activity of HvXET5 during purification is expressed in katals, where 1 kat represents 1 mol of product formed per s; specific activity is expressed in pkat·mg^−1 protein.
# [5] = concentrations between 5 and 15 mM
molecule,measurement,setting,value
"ethylenediamine tetraacetic (disodium salt, dihydrate) [EDTA]",Inhibition of HvXET5 activity,[1]; 2-20 mM concentration ranges,approximately 30%
OCC(O)CO [glycerol],Effect on HvXET activity after freeze-thawing cycles,[2]; 10% (v/v) addition,no effect
"[Ca+2].[Cl-].[Cl-] [Ca^2+, calcium chloride]",Stimulation of HvXET5 activity,[1]; [5],7-8%
"O=S(=O)([O-])[O-].[Mg+2] [Mg^2+, magnesium sulfate]",Inhibition of HvXET5 activity,[1]; [5],3-4%
HvXET5 (Hordeum vulgare) (protein) APPRKPVDVPFEKNYVPTWAEDHIHYVNGGREVQLSLDKTTGTGFQTRGSYLFGHFSMHIKLVGGDSAGTVTAFYLSSQNSEHDEIDFEFLGNRTGQPYILQTNVFSGGKGDREQRIYLWFDPTKDYHSYSVLWNLYMIAFFVDDTPIRVFKNSKDLGVRYPFDQPMKLYSSLWNADDWATRGGREKTDWSKAPFVASYRGFHVDGCEASAEAKLCATQGARWWDQPEFQDLDAAQYRRLAWVRKEHTIYNYCTDRERYAAMSPECKRDRDV,Km,[3],69·10^−6 M
"HvXET5: barley xyloglucan xyloglucosyl transferase (XET isoenzyme) purified from extracts of 7-day-old barley seedlings (protein, Hordeum vulgare, barley xyloglucan xyloglucosyl transferase (XET isoenzyme) purified from extracts of 7-day-old barley seedlings) MKATAGALLAVVATVLLRGIAAAPPRKPVDVPFEKNYVPTWAEDHIHYVNGGREVQLSLDKTTGTGFQTRGSYLFGHFSMHIKLVGGDSAGTVTAFYLSSQNSEHDEIDFEFLGNRTGQPYILQTNVFSGGKGDREQRIYLWFDPTKDYHSYSVLWNLYMIAFFVDDTPIRVFKNSKDLGVRYPFDQPMKLYSSLWNADDWATRGGREKTDWSKAPFVASYRGFHVDGCEASAEAKLCATQGARWWDQPEFQDLDAAQYRRLAWVRKEHTIYNYCTDRERYAAMSPECKRDRDV",Specific activity,[4],"3,630 pkat·mg^−1"
same,Activity at 0° C. relative to activity observed at 30° C.,[2]; 0° C.,approximately 40%
same,pH optimum,"[2]; 30° C., McIlvaine buffers pH 4.0-8.5",6.0
same,Freeze/thaw stability,[2]; several freeze-thaw cycles,did not lose activity
same,Storage stability (retention of activity),[2]; stored at −20° C.,retained its activity for at least a year; also recorded: remained more or less constant for at least a year
same,Effect of buffer ionic strength on activity,"[2]; succinate, ammonium acetate or sodium phosphate buffers, each at 50-200 mM",unaffected

# Reference: US20120083036A1, “POLYSACCHARIDE TRANSFERASE” (ADELAIDE RESEARCH AND INNOVATION PTY LTD, priority 2006, published 2012)
